# Data reported in patent publication US20130156764A1, “NEUTRALIZATION OF FLT3 LIGAND AS A LEUKEMIA THERAPY” (The Johns Hopkins University, priority 2010, published 2013).
# What was measured:
# [1] = test system: FL−/− primary hematopoietic progenitor cells expressing FLT3/ITD or FLT3/TKD; assay: Colony-replating assay of FL−/− bone marrow progenitors transduced with FLT3 mutants, with FL; type: cell-based, mice
# Source text: Bone marrow was harvested from FL^−/− mice, lineage depleted (Lineage Cell Depletion kit; Militenyibi Biotec, Auburn Calif.), and transduced with EF1-ITD-UBC-GFP, EF1-TKD-UBC-GFP, or EF1-UBC-GFP lentivirus by 3 rounds of spin-infection on days 1, 2 and 3. The EF1-ITD-UBC-GFP vector was constructed by inserting full-length FLT3/ITD in EF1-UBC-GFP lentiviral vector. The EF1-TKD-UBC-GFP was constructed by inserting wtFLT3 into the EF1-UBC-GFP followed by mutagenesis of wtFLT3 to substitute nucleotide G of D835 with T resulting in an Aspartic acid to Tyrosine change (QuickChange Site-Directed Mutagenesis Kit; Stratagene, La Jolla, Calif.). GFP positive cells were then sorted by FACS. 10^3 cells were plated into triplicate 35 mm Petri dishes (Nunc) in 1 ml of Methocult M3434 (StemCell Technologies Inc., Vancouver) containing 50 ng/mL rm SCF, 10 ng/mL rm IL-3, 10 ng/mL rh IL-6, and 3 units/mL rh Erythropoietin. Cultures were incubated at 37° C. in a humidified atmosphere of 5% CO2, and colonies consisting of >35 cells were scored after 9-11 days. For the colony-replating assay all cells from the previous culture were collected and re-plated at 1×10^4 cells/plate in fresh methylcellulose medium. All cells were replated three times.
# To evaluate the effect of FL stimulation on primary hematopoietic progenitor cells expressing FLT3 mutants, lineage negative progenitors were harvested from FL^−/− mice and transduced with FLT3/ITD-GFP, FLT3/TKD-GFP, or GFP control lentivirus. GFP-positive cells were selected by FACS, cultured in methylcellulose with and without FL, and the colony numbers were counted after 9 days.
# After colonies were counted, all of the cells in each culture dish were harvested from the methylcellulose, washed and re-plated in fresh methylcellulose medium to examine their potential to form colonies upon secondary plating; this process was repeated for two more passages to determine the frequency of tertiary and quaternary colonies. […]
# [2] = test system: FLT3/ITD and FLT3/TKD in TF1 cells; assay: FL stimulation, FLT3 phosphorylation in TF1/ITD and TF1/TKD cells; type: cell-based; conditions: FL 15 minutes after serum starvation
# Protocol: (§1) TF1 and BaF3 cells were transfected with pCINeo constructs containing either FLT3/ITD or FLT3/TKD mutation by electroporation (Bio-Rad, Hercules, Calif.). Stable transfectants were then selected by limiting dilution in 96-well plates with 1 mg/mL G418 (Invitrogen, Carlsbad, Calif.).
# (§2) The possibility of further activation of FLT3 mutant receptors by exogenous FL was also tested in cell lines in which FL autocrine, paracrine, or intracrine stimulation of FLT3 receptor might exist. […] TF1 cells expressing FLT3 mutant receptors were starved for 16 hours in serum-free medium and washed once with PBS to deplete soluble FL (either produced by the cells or contained in the serum). These cells were then stimulated with exogenous FL for 15 minutes. More than 2-fold enhancement of FLT3 phosphorylation was detected in both TF1/ITD and TF1/TKD cell lines (FIG. 12A). […] To assess the functional effect of exogenous FL, TF1/ITD and TF1/TKD cells were cultured in serum-free medium in the absence and presence of FL for 48 hours. Apoptosis was assessed by Annexin V and 7AAD staining followed by FACS analysis. […] There was no change of cell cycle status in response to FL in these cells (data not shown).
# [3] = test system: STAT5 and AKT phosphorylation; assay: FL stimulation, downstream signaling immunoblot in TF1/ITD and TF1/TKD cells; type: cell-based
# Protocol: as §1, §2
# [4] = test system: primary AML blasts expressing homozygous FLT3/ITD mutations; assay: Survival (MTT) of primary AML blasts with FL; type: cell-based, human; conditions: complete medium, 4 days
# Protocol: 2×10^4 cells in 100 μl serum-free medium were plated into triplicate wells of 96-well plates. Survival was assessed by MTT assay (Roche, Indianapolis, Ind.) and viable cell number counting by trypan blue (GIBCO, Rockville, Md.) exclusion according to the manufacturer's instructions.
# To study whether further activation of mutant FLT3 receptors in response to FL also occurs in primary cells, experiments were carried on primary AML blasts expressing homozygous FLT3/ITD mutations (i.e., no detectable wild type FLT3 by PCR). The blasts were stimulated with 100 ng/mL FL. […] The survival of AML blasts was assessed by culturing them in complete medium with and without FL for 4 days.
molecule,measurement,setting,value
"FL: Recombinant human FL (fms-related tyrosine kinase ligand) purchased from PeproTech; SEQ ID NO: 1 (protein, listed as Homo sapiens) MTVLAPAWSPTTYLLLLLLLSSGLSGTQDCSFQHSPISSDFAVKIRELSDYLLQDYPVTVASNLQDEELCGGLWRLVLAQRWMERLKTVAGSKMQGLLERVNTEIHFVTKCAFQPPPSCLRFVQTNISRLLQETSEQLVALKPWITRQNFSRCLELQCQPDSSTLPPPWSPRPLEATAPTAPQPPLLLLLLLPVGLLLLAAAWCLHWQRTRRRTPRPGEQVPPVPSPQDLLLVEH",number of first-generation colonies,"[1]; BM cells transduced with FLT3 mutants, 9 days",slightly increased
same,re-plating activity upon serial passages,"[1]; BM cells transduced with FLT3 mutants, cultured in presence of FL",retained their re-plating activity
same,colony size,[1]; FL−/− BM cells expressing FLT3 mutants stimulated with FL,significant increase in colony size
same,enhancement of FLT3 phosphorylation,[2],More than 2 fold
same,AKT phosphorylation and AKT protein expression,[3]; TF1/ITD and TF1/TKD after FL stimulation,Slightly increased
same,STAT5 phosphorylation increase,[3]; both TF1/ITD and TF1/TKD,1.8 fold
same,patient samples with increased survival of AML blasts,[4],three of four
